# Measurements reported in patent US11319601B2, “Cell based assay” (Medical Diagnostic Laboratories, L.L.C., priority 2017, dated 2022).
# “Also recorded” adds a separate entry of the source.
# Assays:
# HER2 and HER3 receptors [1] = target: T1, HER2 and HER3 receptors (Homo sapiens, UniProt P04626+P21860); experiment: ERK-Luc / JNK-Luc / 6×JNK-Luc reporters in HEK293 cells with HER3 and HER2, treated with NRG1; type: cell-based
# T1 construct: expressed in transfected cells; host or cells: HEK293
# Description: (§1) In order to characterize the specificity of activation of ERK-Luc and JNK-Luc reporters upon treatment of HER3 ligand, ERK-Luc or JNK-Luc was co-transfected with expression plasmids of HER3 and wild-type or kinase-dead HER2 receptors into the HEK293 cells. After 24 hours, the transfected cells were treated with NRG1 (HER3 receptor ligand). The luciferase reporter activity of the transfected cells was measured by Nano-Glo® Luciferase Assay (Promega). In FIG. 13A, no difference in ERK-Luc reporter activity was found between the cells transfected with wild-type HER2 and kinase-dead HER2 after the treatment of NRG1. […] However, the activity of JNK-Luc reporter was reduced in the cells transfected with kinase-dead HER2 compared to the cells transfected with wild-type HER2 (FIG. 13B).
# (§2) In order to examine the dose response of NRG1 in the activation of JNK-Luc reporters, JNK-Luc with expression plasmids of HER3 and wild-type HER2 receptors were co-transfected into the HEK293 cells. After 24 hours, the transfected cells were treated with a serial dilution of NRG1 (HER3 receptor ligand) for 6 hours. The luciferase reporter activity of the transfected cells was measured by Nano-Glo® Luciferase Assay (Promega).
# (§3) In the previous example, the JNK-Luc reporter contained 3 copies of AP-1 binding site. We observed around 2.6 fold induction of reporter activity when the transfected cells were treated with 100 ng/ml of NRG1 (FIG. 14). In order to enhance the activation of reporter activity, the AP-1 binding site was increased from 3 copies to 6 copies. 6×JNK-Luc was co-transfected with expression plasmids of HER3 and wild-type HER2 receptors into the HEK293 cells. After 24 hours, the transfected cells were treated with 100 ng/ml of NRG1 (HER3 receptor ligand) for 6 hours. The luciferase reporter activity of the transfected cells was measured by Nano-Glo® Luciferase Assay (Promega). In FIG. 15, the 6×JNK-Luc reporter was activated by the treatment of NRG1 only when both HER2 and HER3 receptors were expressed (FIG. 15). Approximately a 4.2 fold induction of reporter activity was found.
# (§4) For cell transfection experiments, HEK293 cells (ATCC) were plated at density of 4-8×10^4 cells per well (96-well plates) or 1-2×10^4 cells per well (384-well plates) in phenol red-free MEM containing 10% FBS and antibiotics. Either DNA plasmid or linear DNA was mixed with TransIT-293 transfection reagent (Mirus Bio LLC). Once cells were trypsinized, DNA transfection mix was added. The cells were then incubated for 24 or 48 hours.
# HER2 and HER3 receptors [2] = experiment: as above; type: cell-based, human; conditions: HER3 plus wild-type or kinase-dead HER2; HEK293
# Description: as §1, §2, §3, §4
# wild-type HER2 receptor = target: T2, wild-type HER2 receptor (Homo sapiens, UniProt P04626); experiment: HER2 reporter cells (clone #1) transfected with wild-type HER2, 384-well plate; type: cell-based
# T2 construct: expressed in transfected cells
# Description: Clone #1 is alternately referred to as the “HER2 reporter cells”. These cells were transiently transfected with the wild-type, constitutively active or kinase-dead forms of HER2 receptors in the 384-well format. After 24 hours, the transfected cells were treated with NRG1. The luciferase reporter activity of the transfected cells was measured by Nano-Glo® Luciferase Assay (Promega). […] The reporter activity of the transfected cells expressing the wild-type form of HER2 receptor was activated upon treatment with NRG1 (FIG. 25). When the cells were transfected with the constitutively active form of HER2 receptor, the reporter activity was activated in the absence of NRG1. However, no activation of reporter was detected when the cells were transfected with the kinase-dead form of HER2 receptor.
# The HER2 reporter cells were first transfected with 100 ng of linear expression cassette of HER2. NRG1 was added to the cells 24 hours post-transfection. […] A robust reporter signal was detected even at 2.5 ng/ml of NRG1.
# To further reduce the assay turnaround time, different stimulation methods were explored. The first method evaluated was Example 9d which was performed by addition of NRG1 to the cells 24 hours post-transfection for 4, 6 and 24 hours. […] The reporter activity was measured 24 hours post-transfection (FIG. 27A). […]
# P780ins HER2 receptor = target: T3, P780ins HER2 receptor (Homo sapiens, UniProt P04626, INS780GSP); experiment: HER2 reporter cells transfected with linear expression cassette of P780ins HER2, all-in-one method; type: cell-based; conditions: all-in-one method
# T3 construct: expressed in transfected cells; host or cells: HER2 reporter cells (clone #1)
# Source text: P780ins corresponds to an insertion mutation of HER2, which adds 3 amino acids (GSP) after the amino acid position of […] (Proline—P). In order to functionally characterize this mutation, PCR-mediated overlapping extension was employed to construct linear expression cassette of HER2 carrying this insertion. The linear expression cassette of mutant HER2 DNA was first transfected into the reporter cells followed by treatment with NRG1 and its inhibitors using the “all-in-one” method. The luciferase reporter activity was measured 24 hours post-transfection.
# T862A HER2 receptor = target: T4, T862A HER2 receptor (Homo sapiens, UniProt P04626, T862A); experiment: HER2 reporter cells transfected with linear expression cassette of T862A HER2, all-in-one method; type: cell-based
# T4 construct: expressed in transfected cells; host or cells: HER2 reporter cells (clone #1)
# Source text: T862A corresponds to a missense mutation of HER2, which changes Threonine (T) into Alanine (A) at amino acid position of 862. In order to functionally characterize this mutation, PCR-mediated overlapping extension was employed to construct a linear expression cassette of HER2 carrying this mutation. The linear expression cassette of mutant HER2 DNA was transfected into the reporter cells followed by treatment with NRG1 and its inhibitors using the “all-in-one” method. The luciferase reporter activity was measured 24 hours post-transfection.
substance,measurement,setting,value
"NRG1: neuregulin-1, HER3 receptor ligand",induction of 6×JNK-Luc reporter activity,"HER2 and HER3 receptors [1]; 100 ng/ml of NRG1, 6 hours, HEK293 with HER2 and HER3",~4.2 fold
same,induction of JNK-Luc reporter activity (3 copies of AP-1 binding site),"HER2 and HER3 receptors [1]; 100 ng/ml of NRG1, HEK293 with HER2 and HER3",around 2.6 fold
same,JNK-Luc reporter activation,"HER2 and HER3 receptors [1]; HER3 plus HER2, HEK293, serial dilution 6 hours",activated JNK-Luc reporter in a HER2's kinase dependent manner; also recorded: dose dependent activation
same,ERK-Luc reporter activation,HER2 and HER3 receptors [2],effectively activated
same,reporter activation by ligand,wild-type HER2 receptor,activated; also recorded: dose-dependent response; also recorded: good dose response; also recorded: dose dependent manner
same,response of mutant HER2 reporter activity to ligand,P780ins HER2 receptor,independent
same,response of mutant HER2 reporter activity to ligand,T862A HER2 receptor,dose-dependent manner
